# Measurements as given in patent US20180021429A1, “ANTICANCER AGENTS OR ANTIMETASTATIC AGENTS USING FSTL1 AND COMBINATION DRUG THEREOF” (PHARMA FOODS INTERNATIONAL CO., LTD., priority 2015, published 2018).
# B1: #8-8: chicken-mouse chimeric anti-FSTL1 antibody clone; variable regions SEQ ID NO: 803 (light), 805 (heavy) (antibody, V domains shown)
# VH: AVTLDESGGGLQTPGGALSLVCKGSGFTFSSFNMFWVRQAPGKGLEWVAGIGKDGVPKYGAAVDGRATISKDNGQSTMRLQLNNLRAEDTGTYYCAKAAGGCSYGWCGAYTGDIDTWGHGTEVIVSS
# VL: ASTQPSSVSANPGEAVKITCSGGSGSYYGWYQQKSPGSAPVTVIYNNNQRPSDIPSRFSGSKSGSTATLTITGVQVEDEAVYFCGGYDSSTGHGGIFGAGTTLTVL
# modifications: mouse constant regions
# Columns and labels:
# [1] = system: induction of mesenchymal stem cells (MSCs) by FSTL1; assay: Inhibitory activity against induction of MSC by FSTL1, CD45-negative cells (Examples 6, 8, 12); format: cell-based, mouse; conditions: Example 8, FIG. 6A/36A; FSTL1 20 ng/mL; antibody 10 μg/mL; 8 days
# Description: (§1) Mouse bone marrow cells prepared in the same way as in Example 4 were supplemented with 50 ng/mL (final concentration) of FSTL1 and 10 μg/mL of the anti-FSTL1 antibody (#5-2, #5-3, #5-8, #5-10, 45-43, #6-55, or #7-34) or a control antibody anti-DNP antibody and cultured under stimulation. 11 days thereafter, the number of cells was counted while the cells were stained with a PE-Cy5-labeled anti-CD45 antibody (BD Pharmingen/Becton, Dickinson and Company, Cat. No. 555484), and the content of CD45-negative cells reported to generally contain MSCs at a high rate was analyzed by flow cytometry using FACScan to calculate the percentage and number of MSCs per culture (FIG. 5A).
# (§2) Mouse bone marrow cells prepared in the same way as in Example 4 were supplemented with 20 ng/mL (final concentration) of FSTL1 and 10 μg/mL of the anti-FSTL1 antibody (#5-2, #5-3, #5-8, #5-10, #5-43, #6-55, #8-1, #8-4, #8-7, and #8-8) or a control antibody anti-DNP antibody and cultured under stimulation. 8 days thereafter, the number of cells was counted while the cells were stained with a PE-Cy5-labeled anti-CD45 antibody, and the content of CD45-negative cells was analyzed by flow cytometry using FACScan to calculate the percentage and number of MSCs per culture (FIG. 6A).
# as §2, with “(#5-2,” for “(#5-2, #5-3,”, “#5-8,” for “#5-8, #5-10, #5-43,”, “#6-55, #7-34,” for “#6-55,”, “#8-7, or” for “#8-7, and”, “(FIG. 7).” for “(FIG. 6A).”
# as §1, with “35A).” for “5A).”
# as §2, with “36A).” for “6A).”
# as §2, with “(#5-2,” for “(#5-2, #5-3,”, “#5-8,” for “#5-8, #5-10, #5-43,”, “#6-55, #7-34,” for “#6-55,”, “#8-7, or” for “#8-7, and”, “(FIG. 37).” for “(FIG. 6A).”
# [2] = target: T1, FSTL1 (Homo sapiens, UniProt Q12841); assay: Inhibition of MSC induction by FSTL1 in mouse bone marrow cells, CD45-negative cells (Examples 6, 8, 12); format: cell-based; parameters: purchased R&D Systems, Inc. 1694-FN-050; conditions: Example 8; FSTL1 20 ng/mL, antibody 10 μg/mL, 8 days
# T1 sequence (Q12841 21-308): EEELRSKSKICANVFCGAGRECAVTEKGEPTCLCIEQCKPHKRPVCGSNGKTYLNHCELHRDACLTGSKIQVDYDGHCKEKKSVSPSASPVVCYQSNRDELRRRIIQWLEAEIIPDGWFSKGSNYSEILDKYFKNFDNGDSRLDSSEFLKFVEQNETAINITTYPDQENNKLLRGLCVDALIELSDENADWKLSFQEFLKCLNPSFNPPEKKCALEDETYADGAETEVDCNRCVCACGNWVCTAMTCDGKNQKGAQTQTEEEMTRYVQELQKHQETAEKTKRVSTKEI
# Description: as §1, with “CD45− negative” for “CD45-negative”, “67A).” for “5A).”
# as §2, with “CD45− negative” for “CD45-negative”, “68A).” for “6A).”
# as §2, with “(#5-2,” for “(#5-2, #5-3,”, “#5-8,” for “#5-8, #5-10, #5-43,”, “#6-55, #7-34,” for “#6-55,”, “#8-7, or” for “#8-7, and”, “of CD45− negative” for “of CD45-negative”, “(FIG. 69).” for “(FIG. 6A).”
molecule,measurement,setting,value
B1,inhibitory activity against the expansion of CD45-negative cells by FSTL1,[1],Inhibitory activity was confirmed
same,inhibitory activity against the expansion of CD45-negative cells by FSTL1,[2],Inhibitory activity was confirmed
